Here are results for five sequences from PMC5308003.

The data set concerns the target T1, 6His-OxyR-Like (Magnetospirillum gryphiswaldense MSR-1) (UniProt V6F1S1).
T1 sequence: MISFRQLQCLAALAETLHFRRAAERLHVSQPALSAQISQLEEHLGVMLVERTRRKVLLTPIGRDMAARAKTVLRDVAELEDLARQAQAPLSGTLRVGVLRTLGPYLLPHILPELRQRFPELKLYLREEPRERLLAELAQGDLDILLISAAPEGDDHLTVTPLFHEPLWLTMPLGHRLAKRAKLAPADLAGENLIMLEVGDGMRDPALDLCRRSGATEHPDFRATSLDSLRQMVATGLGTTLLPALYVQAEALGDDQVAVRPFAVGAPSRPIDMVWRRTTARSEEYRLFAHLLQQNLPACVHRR
The data set can be described thus: EMSA. The note with it: EMSA: DIG Gel Shift Kit 2nd Gen (Roche) binding buffer with 1 uL poly[d(I-C)], 20 uL, 25 C 30 min, 5% native PAGE in 0.5x TBE; footprinting: 1000 ng labeled ….
For “CAGGGCAGGATGATGTGAGTGCGTAGACAGATAGGTAAACCAACCTTCCCTTTTAGGCAAGGCGTTTCGCCGTCAAAAATGCTTATATTGCAATGCAATAATGGCAATTAACTGGATAATAGTTATTTATCAAAACCTAACCAGATGGGCGGGCAACGGGTGGTGCGATGCAGCAATCCTTTTGCCTCATCGGGTTAGCGCCTGACAGGGATATTGGGAGCGGGCAAACACTTGAAAACCCACCCGGCGGACAAAATCGCGCCAACCGGTCCATTTCACAATGCACCCATTCAGAGCAAA (double strand) [pdh promoter EMSA probe]”, the binding entry is reported as “binds”.
Consider “CGGCACTTGTTCCATGAACTTCGACCATATCGCTCTCCCATTCAACCAATTGTTAGCCTTGGGCTTGGCGATATTCTAACCGTTCCTCCATTCAACTCATACAGATGTGGTTTAGAAGCTTTTTAATAAATACTTGAGGGTCCGGAAATCATTAGCCGAACCCTCAATAGCCTCAGCTATGCAGGCCGGGGGCTTCATGTCCGGTGCGGGCCACGTATTCGGTGTAGCCGC (double strand) [katG promoter EMSA probe]”, for which the binding result is reported as “no binding”.
With “CTTGATCCCGATAATCTGCTGATCGTGGTGGTCGGCAAGCCGGAAGGGGTCAACGGCACGCCCTAACCCGAAAAGACGGCGGCGGCAAAAATCAACGCCGCCCAGTGATCCGTTTCTCCCGTGACACCGTAGAAGGGTCATAAGGAGAAACGCGATGCCTCGGATCATCAAGATTGTTGCCGGCGCTTTGGCCACCTGTCTGGCGGCGACGGCCCCGGCCAAGGCCAGTGGTGCTGTCTTGGACT (double strand) [bsaA promoter EMSA probe]” the entry was “no binding”; with “GGGCGAAGAATGGACATCGTCGTCTCCATTAGGCTGTTGTCCGTGATTGAGACTATGCCCCCTTCTTTGTGATAATTCTAATCGATATATCTTGAGATATTGATAGTAAATTGTTATCAGTGATCCATGATCAGCTTTCGCCAATTACAATGCCT (double strand) [oxyR-Like promoter EMSA probe]”, “binds”.
Under “TGGGCTGTTGCTTGTCTTATCTTTTTTCATTTCCGCCTCACAGGCTGAATTATCTGAAAAGGAAATAGATGAGGATCAGGACTGGGATGGGAACGCCAACCAGCCAGAGAAGGCCGTATTTCATTTCCTACCTCGCTGTTCTGCCGGTGTGTCATGGGGCAATGGAGCCGTCCTGATACAAGA (double strand) [katE promoter EMSA probe]” stands “no binding”.
